The term Kd denotes the constant that tells how readily two partners part at equilibrium. One may read the koff as the rate constant with which the complex falls apart. Low values mean slow dissociation, high ones fast dissociation. As usually defined, the kon is the rate constant with which the complex forms. A high value points to fast association.

The values below come from patent US20200048372A1 (UCB, published 2020).

In assay [1] the target is T1, human serum albumin (human, UniProt P02768 25-609).
T1 construct: also called HSA; HumanSA
In words: SPR (Biacore). A general note: SPR reads the build-up and loss of mass on a sensor chip optically.

Assay [2] addresses T1, human serum albumin. In words: SPR (Biacore), purified construct captured, HSA injected.
The next assay has as its target T2, mouse serum albumin (mouse, UniProt P07724 25-608).
T2 construct: also called MSA; MurineSA
In words: SPR (Biacore), purified construct captured, MSA injected.

B1: FabB-645dsFv (S3xG4S) with Fv heavy mutation T100aA (bispecific antibody, part only; not given: anti-OX40 Fab and linkers, V domains shown, not shown: another chain or arm of the molecule; large carriers; small tags and cut ends)
VH: EVQLLESGGGLVQPGGSLRLSCAVSGIDLSNYAINWVRQAPGKCLEWIGIIWASGTTFYATWAKGRFTISRDSTTVYLQMNSLRAEDTAVYYCARTVPGYSAAPYFDLWGQGTLVTVSS
VL: DIVMTQSPSSVSASVGDRVTITCQSSPSVWSNFLSWYQQKPGKAPKLLIYEASKLTSGVPSRFKGSGSGTDFTLTISSLQPEDFATYYCGGGYSSISDTTFGCGTKVEIK
modifications: Interchain disulfide between VH Cys44 and VL Cys100 (Kabat) of the dsFv
For the molecule B1, in the assay with human serum albumin [1], the Kd came out at 51.6 nM, the koff was found to be 0.0186 s⁻¹ and the kon was found to be 360000 M⁻¹ s⁻¹.

B2: FabB-didAb, -dAbL1 (CK-G4Sx2) & dAbH1 (CH1-G4Sx2) (bispecific antibody)
heavy: ASTKGPSVFPLAPSSKSTSGGTAALGCLVKDYFPEPVTVSWNSGALTSGVHTFPAVLQSSGLYSLSSVVTVPSSSLGTQTYICNVNHKPSNTKVDKKVEPKSCGGGGSGGGGSEVQLLESGGGLVQPGGSLRLSCAVSGIDLSNYAINWVRQAPGKGLEWIGIIWASGTTFYATWAKGRFTISRDSTTVYLQMNSLRAEDTAVYYCARTVPGYSTAPYFDLWGQGTLVTVSS
light: RTVAAPSVFIFPPSDEQLKSGTASVVCLLNNFYPREAKVQWKVDNALQSGNSQESVTEQDSKDSTYSLSSTLTLSKADYEKHKVYACEVTHQGLSSPVTKSFNRGECGGGGSGGGGSDIVMTQSPSSVSASVGDRVTITCQSSPSVWSNFLSWYQQKPGKAPKLLIYEASKLTSGVPSRFKGSGSGTDFTLTISSLQPEDFATYYCGGGYSSISDTTFGGGTKVEIK
notes: also called FabB-645Fv (G4Sx2); FabB-645Fv (2xG4S)
B2: the figures for the off-rate constant (koff) with human serum albumin [2] and in the assay with mouse serum albumin were 0.000206 s⁻¹ and 0.000182 s⁻¹, respectively.
